What was measured:
[1] = target: T1, recombinant human PS (rhPS) (human, UniProt P07225 42-676); test: cell-based or functional assay
T1 sequence (looked up): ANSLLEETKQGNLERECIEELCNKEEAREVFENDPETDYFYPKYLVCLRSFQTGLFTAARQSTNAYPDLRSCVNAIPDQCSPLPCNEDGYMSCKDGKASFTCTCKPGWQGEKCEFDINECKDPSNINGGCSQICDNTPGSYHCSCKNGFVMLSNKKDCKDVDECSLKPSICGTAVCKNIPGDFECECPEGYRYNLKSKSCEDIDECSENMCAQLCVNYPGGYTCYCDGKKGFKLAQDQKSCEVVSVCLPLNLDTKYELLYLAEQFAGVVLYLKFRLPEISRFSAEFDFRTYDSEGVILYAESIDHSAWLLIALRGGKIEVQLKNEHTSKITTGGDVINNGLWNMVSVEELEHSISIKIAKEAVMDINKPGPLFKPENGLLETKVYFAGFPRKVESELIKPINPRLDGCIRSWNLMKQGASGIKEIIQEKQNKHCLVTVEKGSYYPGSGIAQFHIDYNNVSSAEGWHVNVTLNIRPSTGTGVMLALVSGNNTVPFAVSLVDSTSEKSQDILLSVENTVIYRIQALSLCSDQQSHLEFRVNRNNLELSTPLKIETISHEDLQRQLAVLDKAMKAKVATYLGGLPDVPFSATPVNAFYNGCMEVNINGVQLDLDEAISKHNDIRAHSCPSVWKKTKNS

[2] = target: T1, recombinant human PS (rhPS); test: ratio of ELISA-derived KD values, reference PS003
Procedure: (§1) To further compare the ability of PS003 and PS003biv to bind to PS, the affinity of PS003 and PS003biv for rhPS was estimated as described (Beatty et al. J Immunol Methods 1987), by obtaining binding curves on rhPS immobilized at increasing concentrations (0.6, 1.25, 2.5 and 5 μg/mL in TBS containing 5 mM CaCl₂) in three individual experiments done in simplicate. For each nanobody, the dissociation constant (KD) was determined by using a formula based on the Law of Mass Action.

[3] = target: T2, recombinant murine PS (rmPS) (murine, UniProt Q08761 42-675); test: direct ELISA on immobilized rmPS (legend of FIG. 11)
T2 construct: also called recombinant murine protein S
T2 sequence (looked up): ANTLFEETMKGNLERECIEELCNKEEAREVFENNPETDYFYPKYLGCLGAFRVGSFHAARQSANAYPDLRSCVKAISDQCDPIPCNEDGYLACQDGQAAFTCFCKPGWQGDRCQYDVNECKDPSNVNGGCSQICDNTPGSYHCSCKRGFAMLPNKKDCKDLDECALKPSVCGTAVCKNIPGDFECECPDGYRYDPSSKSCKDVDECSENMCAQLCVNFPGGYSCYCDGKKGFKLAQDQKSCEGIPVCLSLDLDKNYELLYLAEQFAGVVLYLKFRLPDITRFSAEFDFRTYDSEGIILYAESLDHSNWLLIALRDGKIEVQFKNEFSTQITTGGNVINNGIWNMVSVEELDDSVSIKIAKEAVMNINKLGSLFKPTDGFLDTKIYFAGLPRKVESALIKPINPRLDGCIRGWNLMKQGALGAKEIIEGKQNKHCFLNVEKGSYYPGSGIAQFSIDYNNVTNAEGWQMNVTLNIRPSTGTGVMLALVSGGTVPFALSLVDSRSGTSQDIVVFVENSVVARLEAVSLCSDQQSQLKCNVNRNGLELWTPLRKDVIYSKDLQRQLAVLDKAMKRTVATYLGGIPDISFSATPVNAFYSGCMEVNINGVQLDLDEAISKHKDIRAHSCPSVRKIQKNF
From the text: FIG. 11: Comparison of PS003biv and PS004biv binding to immobilized recombinant murine PS in direct ELISA. PS004biv is an in-house anti-human PS nanobody generated from a monovalent nanobody (PS004) identified after a selection on rhPS immobilized onto ELISA wells. PS004biv strongly binds to rhPS in direct ELISA but, in contrast to PS003biv, its epitope is localized within the N-terminal part of PS and not within the SHBG-like domain of PS (data not shown). The binding of PS003biv and PS004biv to immobilized rmPS was analyzed by ELISA.
As for rhPS, recombinant murine PS (rmPS) was expressed in HEK293 cells in the presence of 10 μg/mL vitamin K1, and purified by a two-step anion-exchange chromatography, as previously described (Fernandez et al. 2009). rmPS (60 μL at 10 μg/mL in TBS containing 5 mM CaCl₂) was immobilized onto 96-well NUNC Maxisorp plates, for 16 h at 4° C. Wells were washed with 3×200 μL of washing buffer (TBS containing 5 mM CaCl₂) and 0.1% Tween-20) and wells were blocked for 1 h at room temperature with TBS containing 5 mM CaCl₂ and 5% BSA. Wells were washed with 3×200 μL of washing buffer and increasing concentrations of PS003biv and PS004biv (0-50 nM in TBS containing 5 mM CaCl₂ and 1% BSA, 50 μL/well) were incubated for 1 h at room temperature. […]

[4] = target: T3, recombinant human Gas6 (rhGas6) (human, UniProt Q14393 49-678, limits assumed); test: direct ELISA on immobilized rhGas6, anti-His6 detection
T3 sequence (looked up): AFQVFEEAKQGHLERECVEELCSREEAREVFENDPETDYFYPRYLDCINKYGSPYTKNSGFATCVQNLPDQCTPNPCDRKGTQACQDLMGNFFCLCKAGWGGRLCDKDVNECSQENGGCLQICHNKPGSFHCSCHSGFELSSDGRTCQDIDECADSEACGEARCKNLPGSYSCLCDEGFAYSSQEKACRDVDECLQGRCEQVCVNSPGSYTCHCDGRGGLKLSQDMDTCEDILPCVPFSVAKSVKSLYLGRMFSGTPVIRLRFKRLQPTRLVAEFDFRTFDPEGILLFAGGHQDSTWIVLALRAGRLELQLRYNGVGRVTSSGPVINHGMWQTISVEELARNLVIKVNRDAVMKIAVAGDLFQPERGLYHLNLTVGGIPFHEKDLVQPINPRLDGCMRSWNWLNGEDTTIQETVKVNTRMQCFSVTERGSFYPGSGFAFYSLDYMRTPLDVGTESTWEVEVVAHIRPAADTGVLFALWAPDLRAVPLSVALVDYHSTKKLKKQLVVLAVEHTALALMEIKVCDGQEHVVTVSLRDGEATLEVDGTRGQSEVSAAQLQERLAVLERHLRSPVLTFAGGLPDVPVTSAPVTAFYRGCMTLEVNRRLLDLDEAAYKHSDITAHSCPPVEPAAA
Procedure: FIG. 7: Epitope mapping of PS003biv and specificity of PS003biv for PS. Recombinant human PS (rhPS), a recombinant form of the PS SHBG-like region alone (rSHBG)), recombinant human Gas6 (rhGas6), or BSA (60 μL at 10 μg/mL in TBS containing 5 mM CaCl₂) were immobilized onto ELISA wells, and the binding of PS003biv (0.5 nM in TBS-0.1% Tween-5 mM CaCl₂)) was analyzed using a peroxidase-conjugated polyclonal anti-His6 tag antibody. The results are expressed as the percentage of the Abs_{450 nm} obtained on rhPS. Three individual experiments were done in simplicate.
Epitope mapping of PS003biv and specificity of PS003biv for PS rhPS, a recombinant form of the PS SHBG-like region alone (rSHBG) (Saposnik et al. 2003), recombinant human Gas6 (rhGas6), or BSA (60 μL at 10 μg/mL in 50 mM Tris, 150 mM NaCl, pH 7.4 (TBS) containing 5 mM CaCl₂) were immobilized onto 96-well NUNC Maxisorp plates, for 16 h at 4° C. Wells were washed with 3×200 μL of washing buffer (TBS containing 5 mM CaCl₂ and 0.1% Tween-20) and wells were blocked for 1 h at room temperature with TBS containing 5 mM CaCl₂ and 5% BSA. Wells were washed with 3×200 μL of washing buffer and 0.5 nM PS003biv (in TBS containing 5 mM CaCl₂, 0.1% Tween-20 and 2% BSA, 50 μL/well) were incubated for 1 h at room temperature. […] The results are expressed as the percentage of the Abs_{450 nm} obtained on rhPS. […]

[5] = target: T1, recombinant human PS (rhPS); test: ELISA on rhPS immobilized at 0.6, 1.25, 2.5 and 5 µg/mL, method of Beatty et al. 1987
Procedure: as §1, with “FIG. 6: Comparison of PS003 and PS003biv binding to immobilized PS in direct ELISA. rhPS (60 μL at 2.5 μg/mL in TBS containing 5 mM CaCl₂)) was immobilized onto ELISA wells, and the binding of PS003 and PS003biv (0-200 nM) was analyzed with a peroxidase-conjugated polyclonal anti-His6 tag antibody. Three individual experiments were done in simplicate, and the results are expressed as percentage of maximal binding for each nanobody. […] To” for “To”, “obtaining similar” for “obtaining”
as §1, with “For each nanobody, the dissociation constant (KD) was determined by using a formula based on the Law of Mass Action.” left out

[6] = target: T3, recombinant human Gas6 (rhGas6); test: direct ELISA on immobilized protein, anti-HA detection
Procedure: Vitamin K-dependent Gas6 is highly homologous to PS (47% overall homology) and, in contrast to other vitamin K-dependent proteins, also contains a SHBG-like domain. To further confirm the specificity of PS003 to PS, rhPS and rh Gas6 (60 μL, at 10 μg/mL in TBS containing 5 mM CaCl₂) were immobilized onto 96-well NUNC Maxisorp plates for 16 h at 4° C. Wells were washed with 3×200 μL of washing buffer (TBS containing 5 mM CaCl₂ and 0.1% Tween-20) and wells were blocked for 1 h at room temperature in TBS containing 5 mM CaCl₂ and 5% BSA. Wells were washed with 3×200 μL of washing buffer and increasing concentrations of PS003 (0-200 nM in TBS containing 5 mM CaCl₂ and 1% BSA, 50 μL/well) was incubated for 1 h at room temperature. Wells were washed with 3×200 μL of washing buffer, and a peroxidase-conjugated polyclonal anti-HA tag antibody (Abcam, 1 μg/mL in TBS containing 5 mM CaCl₂ and 1% BSA, 50 μL/well) was incubated for 1 h at room temperature. Wells were washed with 3×200 μL of washing buffer and 50 μL of TMB was added. Reactions were stopped by the addition of 50 μL of 2M H₂SO₄.

B1: PS003biv (VHH)
chain: QVQLQESGGGLVQAGGSLRLSCAASGRTFSSYAMGWVRQAPGKEREFVAAISYNGGRTNYADSVKGRFTISRDNAKNTGYLQMNSLKPEDTAVYYCAANPRMWGSVDFRSWGQGTQVTVSSGGGSGGGSGGGSGGGSQVQLQESGGGLVQAGGSLRLSCAASGRTFSSYAMGWVRQAPGKEREFVAAISYNGGRTNYADSVKGRFTISRDNAKNTGYLQMNSLKPEDTAVYYCAANPRMWGSVDFRSWGQGTQVTVSS
notes: also called bivalent PS003; not shown: N-terminal His6-tag from the pET28 format; C-terminal haemagglutinin (HA)-tag
- clotting times in APTT-based APC-cofactor activity plasma clotting assay (STACLOT PS); 6 nM rhPS, 2 µM nanobody [1]: 3.6 fold
- fold higher affinity than PS003 [2]: 1.9 fold
- binding result [3]: binds
- binding result [4]: no binding (tested: 0.5 nM)
- Kd [5]: 13.8 nM

B2: PS003 (VHH)
VHH: QVQLQESGGGLVQAGGSLRLSCAASGRTFSSYAMGWVRQAPGKEREFVAAISYNGGRTNYADSVKGRFTISRDNAKNTGYLQMNSLKPEDTAVYYCAANPRMWGSVDFRSWGQGTQVTVSS
notes: Llama VHH selected by phage display on rhPS; Purified form expressed from pET28 in E. coli with N-terminal His6-tag and C-terminal HA-tag; also called PS003 nanobody; monovalent PS003; not shown: N-terminal His6-tag from the pET28 format; C-terminal haemagglutinin (HA)-tag
- clotting times in APTT-based APC-cofactor activity plasma clotting assay (STACLOT PS); 6 nM rhPS, 2 µM nanobody [1]: 2.8 fold
- binding result [6]: no binding (tested: 20 nM)
- Kd [5]: 26.8 nM
